Laboratory results: PMC3025021, “Structural Basis of Enzymatic Activity for the Ferulic Acid Decarboxylase (FADase) from Enterobacter sp. Px6-4” (PLoS ONE, 2011)

T1: FADase (ferulic acid decarboxylase) (Enterobacter sp. Px6-4, UniProt C6F3U5)
T1 construct: full-length Met1-Lys168, pET-28a(+) EcoRI/HindIII, Ni-NTA purified, E. coli BL21(DE3); 23 kDa subunit, homodimer (44 kDa)
T1 sequence (C6F3U5 1-168): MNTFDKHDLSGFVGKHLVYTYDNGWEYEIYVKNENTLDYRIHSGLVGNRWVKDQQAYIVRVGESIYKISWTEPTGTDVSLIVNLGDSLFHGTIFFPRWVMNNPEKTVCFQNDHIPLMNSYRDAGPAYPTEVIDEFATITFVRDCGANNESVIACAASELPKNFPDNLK

B1: FADase (ferulic acid decarboxylase) (Enterobacter sp. Px6-4) (protein)
chain: T1 sequence (C6F3U5 1-168)
notes: full-length Met1-Lys168, pET-28a(+) EcoRI/HindIII, Ni-NTA purified, E. coli BL21(DE3); 23 kDa subunit, homodimer (44 kDa)

What was measured:
[1] = molecular target: T1, FADase (ferulic acid decarboxylase); experiment: X-ray crystal structure, soaking, […] Å; assay type: binding; conditions: crystals soaked overnight with 7 mM sodium ferulate; active site of monomer A
[2] = tested on: T2, COc1cc(/C=C/C(=O)O)ccc1O; experiment: HPLC decarboxylation assay; assay type: biochemical, Enterobacter sp. Px6-4; conditions: 50 mM sodium phosphate pH 4.0, 28 °C (standard activity assay)
T2 construct: full-length Met1-Lys168, pET-28a(+) EcoRI/HindIII, Ni-NTA purified, E. coli BL21(DE3); 23 kDa subunit, homodimer (44 kDa)
Excerpt: (§1) HPLC decarboxylation assay on FADase (ferulic acid decarboxylase)

[3] = molecular target: Ferulic acid decarboxylase (FADase) from Enterobacter sp. Px6-4 (Enterobacter sp. Px6-4); experiment: SEC; gel-filtration / size exclusion chromatography of recombinant FADase; data not shown
[4] = molecular target: Ferulic acid decarboxylase (FADase) from Enterobacter sp. Px6-4 (Enterobacter sp. Px6-4); experiment: cross-linking; cross-linking of FADase with ethylene glycolbis (EGS), read on a gel
[5] = substrate: COc1cc(/C=C/C(=O)O)ccc1O; experiment: HPLC decarboxylation assay; assay type: biochemical, Enterobacter sp. Px6-4; conditions: 50 mM sodium phosphate pH 4.0, 28 °C (standard activity assay)
Excerpt: as §1

Molecule | Km [2] | Vmax [2] | kcat [2] | kcat/Km [2] | further results
COc1cc(/C=C/C(=O)O)ccc1O [sodium ferulate] | – | – | – | – | X-ray crystal structure, soaking, 2.1 Å [1]: The crystal structure of FADase in complex with the substrate analog sodium ferulate
FADase (ferulic acid decarboxylase) (Enterobacter sp. Px6-4; E134A) | 3520 µM | 285 µM/min | 0.995 s⁻¹ | 280 M⁻¹ s⁻¹ | –
FADase (ferulic acid decarboxylase) (Enterobacter sp. Px6-4; W25A) | 730 µM | 39.6 µM/min | 0.02 s⁻¹ | 20 M⁻¹ s⁻¹ | –
Ferulic acid decarboxylase (FADase) from Enterobacter sp. Px6-4 (enzyme) | – | – | – | – | stoichiometry N [3]: 2; stoichiometry N [4]: 2
B1 | – | – | – | – | Km [5]: 2360 µM; Vmax [5]: 606 µM/min; kcat [5]: 2.15 s⁻¹; kcat/Km [5]: 910 M⁻¹ s⁻¹
